Data on two substances can be found in article PMC3680381.

Experiment [1] addresses Plasmodium falciparum cytoplasmic tryptophanyl-tRNA synthetase, full length (Plasmodium falciparum). The experiment is described as follows: SEC; gel filtration on Superdex200, 20 mM Tris, 100 mM NaCl, pH 7.5; oligomeric state from migration against markers (BSA, DTD).
In experiment [2] the target is Pf-WRS catalytic domain (aminoacylation and anticodon binding domains) (Plasmodium falciparum). The description is as above.

In experiment [1], “Plasmodium falciparum cytoplasmic tryptophanyl-tRNA synthetase, full length (enzyme)” gave a stoichiometry N of 2.
In experiment [2], “Pf-WRS catalytic domain (aminoacylation and anticodon binding domains) (domain or fragment)” returned a stoichiometry N of 2.
